The target in data set [1] is T1, OC2 DNA-binding domain (UniProt O95948 330-485).
T1 sequence: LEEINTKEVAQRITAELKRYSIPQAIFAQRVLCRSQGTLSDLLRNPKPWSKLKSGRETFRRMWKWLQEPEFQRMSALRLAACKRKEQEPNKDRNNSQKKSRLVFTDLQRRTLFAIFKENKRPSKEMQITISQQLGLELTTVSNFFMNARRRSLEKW
Put plainly: SPR. For orientation: SPR reads the build-up and loss of mass on a sensor chip optically.

Data set [2] concerns the target T1, OC2 DNA-binding domain. Description: SPR. This is another data set of the same source.

B1: UGT2B15 promoter 20 bp mutant (dsDNA)
DNA 1: TAACTTGGCTGTCTTTTCCT
DNA 2: AGGAAAAGACAGCCAAGTTA
Consider B1, for which the binding result with OC2 DNA-binding domain [1] is recorded as “no binding”.

B2: UGT2B15 promoter 20 bp WT (dsDNA)
DNA 1: TAACTTGATTGATTTTTCCT
DNA 2: AGGAAAAATCAATCAAGTTA
As a reminder, the Kd is the constant that tells how readily two partners part at equilibrium. A lower Kd goes with a tighter complex. B2 had a Kd with OC2 DNA-binding domain [2] of 1.13 ± 0.01 nM.

These data come from paper PMC11260453.
